Test results reported in IntAct's records for PubMed 11801737.

B1: Protein phosphatase 1 regulatory subunit SDS22 (Saccharomyces cerevisiae), P36047 (parent)
chain: MDKNSVNKDSEEKDERHKIEVVDDTNPDFITADSELTQDLPDDVEVIDLVHLKIKSLEDLNLYRFKNLKQLCLRQNLIESISEVEVLPHDKIVDLDFYDNKIKHISSNVNKLTKLTSLDLSFNKIKHIKNLENLTDLENLYFVQNSISKIENLSTLKSLKNLELGGNKVHSIEPDSFEGLSNLEEIWLGKNSIPRLINLHPLKNLKILSIQSNKLKKIENLEELTNLEELYLSHNFITKIEGLEKNLKLTTLDVTSNKITSLENLNHLSNLTDIWASFNKIDQSFESLGENLSALSRLETIYLEGNPIQLENKTSYRRKLTMNLPPSLQKIDATYIRG

Variants of: B1
Conditions: with pp12_yeast GLC7, P32598
Chain of pp12_yeast GLC7, P32598 (P32598 whole entry): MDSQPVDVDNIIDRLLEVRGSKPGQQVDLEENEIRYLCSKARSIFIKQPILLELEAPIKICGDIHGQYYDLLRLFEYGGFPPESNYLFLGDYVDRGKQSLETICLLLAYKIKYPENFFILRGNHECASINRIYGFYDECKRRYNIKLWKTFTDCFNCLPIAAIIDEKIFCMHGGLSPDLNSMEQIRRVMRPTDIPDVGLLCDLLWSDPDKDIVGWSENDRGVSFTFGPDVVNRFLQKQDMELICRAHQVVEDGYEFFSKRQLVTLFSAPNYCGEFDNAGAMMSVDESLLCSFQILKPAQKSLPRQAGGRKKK

effect of a mutation on the interaction | Variant
decreasing interaction strength | MDKNSVNKDSEEKDERHKIEVVDDTNPDFITADSELTQDLPDDVEVIDLVHLKTKSLEDLNLYRFKNLKQLCLRQNLIESISEVEVLPHDKIVDLDFYDNKIKHISSNVNKLTKLTSLDLSFNKIKHIKNLENLTDLENLYFVQNSISKIENLSTLKSLKNLELGGNKVHSIEPDSFEGLSNLEEIWLGKNSTPRLINLHPLKNLKILSIQSNKLKKIENLEELTNLEELYLSHNFITKIEGLEKNLKLTTLDVTSNKITSLENLNHLSNLTDIWASFNKIDQSFESLGENLSALSRLETIYLEGNPIQLENKTSYRRKLTMNLPPSLQKIDATYIRG [I54T;I193T]
